Where two headings read alike, the source gives them in different places. Positions of bridges follow the written chain, without caps; N, C: chain ends.
Assays:
Assay in all cases: cell-based or functional assay
[1] = biological target: T1, chick N-cadherin expressed on transfected 3T3 cells (chick, UniProt P10288 165-912)
T1 sequence (looked up): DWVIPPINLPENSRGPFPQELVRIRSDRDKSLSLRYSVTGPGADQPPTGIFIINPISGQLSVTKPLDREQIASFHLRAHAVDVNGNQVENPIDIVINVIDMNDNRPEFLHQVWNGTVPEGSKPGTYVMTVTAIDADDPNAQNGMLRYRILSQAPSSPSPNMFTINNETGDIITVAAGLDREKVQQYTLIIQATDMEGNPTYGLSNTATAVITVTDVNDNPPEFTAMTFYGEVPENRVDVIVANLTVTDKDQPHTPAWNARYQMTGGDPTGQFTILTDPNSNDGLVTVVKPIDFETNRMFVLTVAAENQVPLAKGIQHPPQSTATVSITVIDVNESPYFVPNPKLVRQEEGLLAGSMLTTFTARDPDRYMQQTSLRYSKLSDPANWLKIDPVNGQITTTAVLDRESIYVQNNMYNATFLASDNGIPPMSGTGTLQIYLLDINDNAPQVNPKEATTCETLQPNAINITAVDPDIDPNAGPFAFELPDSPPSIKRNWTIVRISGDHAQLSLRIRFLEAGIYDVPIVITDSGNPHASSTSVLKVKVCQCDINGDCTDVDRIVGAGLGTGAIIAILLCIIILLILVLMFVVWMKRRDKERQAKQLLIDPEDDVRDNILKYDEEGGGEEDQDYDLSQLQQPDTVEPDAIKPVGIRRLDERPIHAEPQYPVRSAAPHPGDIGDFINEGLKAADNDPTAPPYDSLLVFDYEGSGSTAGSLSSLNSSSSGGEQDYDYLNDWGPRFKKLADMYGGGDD

[2] = biological target: T1, chick N-cadherin expressed on …; remark: listed apart in the source
[3] = biological target: N-cadherin expressed on transfected 3T3 cells (Examples 2 and 21)
[4] = biological target: T1, chick N-cadherin expressed on …; remark: listed apart in the source
[5] = biological target: T1, chick N-cadherin expressed on …; remark: listed apart in the source
[6] = biological target: human L1 expressed on transfected 3T3 cells (human, UniProt P32004 20-1257)
[7] = biological target: T2, E-cadherin on Madin Darby canine kidney (MDCK) cells (canine (MDCK cells), UniProt F1PAA9 157-885)
T2 sequence (looked up): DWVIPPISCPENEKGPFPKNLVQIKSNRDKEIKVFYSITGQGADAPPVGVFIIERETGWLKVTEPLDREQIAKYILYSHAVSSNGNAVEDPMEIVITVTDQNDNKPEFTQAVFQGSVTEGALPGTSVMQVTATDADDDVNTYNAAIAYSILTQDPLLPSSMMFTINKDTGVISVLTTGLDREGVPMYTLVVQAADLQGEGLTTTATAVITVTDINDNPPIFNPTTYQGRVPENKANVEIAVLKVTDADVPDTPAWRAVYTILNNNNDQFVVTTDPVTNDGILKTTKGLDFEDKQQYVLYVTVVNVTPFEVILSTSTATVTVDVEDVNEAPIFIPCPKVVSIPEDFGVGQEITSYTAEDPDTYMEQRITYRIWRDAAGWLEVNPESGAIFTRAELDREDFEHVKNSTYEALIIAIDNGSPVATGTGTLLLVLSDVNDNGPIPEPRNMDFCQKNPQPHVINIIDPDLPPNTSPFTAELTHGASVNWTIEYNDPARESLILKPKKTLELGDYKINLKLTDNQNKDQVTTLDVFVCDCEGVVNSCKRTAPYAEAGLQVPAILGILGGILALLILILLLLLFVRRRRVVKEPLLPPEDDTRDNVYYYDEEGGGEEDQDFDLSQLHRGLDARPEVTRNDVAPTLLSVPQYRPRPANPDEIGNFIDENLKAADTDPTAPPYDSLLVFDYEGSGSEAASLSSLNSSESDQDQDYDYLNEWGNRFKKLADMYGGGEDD

[8] = biological target: T2, E-cadherin on Madin Darby canine kidney …; remark: listed apart in the source
[9] = biological target: T1, chick N-cadherin expressed on …; remark: listed apart in the source

human L1 expressed on transfected 3T3 cells, sequence (P32004 20-1257): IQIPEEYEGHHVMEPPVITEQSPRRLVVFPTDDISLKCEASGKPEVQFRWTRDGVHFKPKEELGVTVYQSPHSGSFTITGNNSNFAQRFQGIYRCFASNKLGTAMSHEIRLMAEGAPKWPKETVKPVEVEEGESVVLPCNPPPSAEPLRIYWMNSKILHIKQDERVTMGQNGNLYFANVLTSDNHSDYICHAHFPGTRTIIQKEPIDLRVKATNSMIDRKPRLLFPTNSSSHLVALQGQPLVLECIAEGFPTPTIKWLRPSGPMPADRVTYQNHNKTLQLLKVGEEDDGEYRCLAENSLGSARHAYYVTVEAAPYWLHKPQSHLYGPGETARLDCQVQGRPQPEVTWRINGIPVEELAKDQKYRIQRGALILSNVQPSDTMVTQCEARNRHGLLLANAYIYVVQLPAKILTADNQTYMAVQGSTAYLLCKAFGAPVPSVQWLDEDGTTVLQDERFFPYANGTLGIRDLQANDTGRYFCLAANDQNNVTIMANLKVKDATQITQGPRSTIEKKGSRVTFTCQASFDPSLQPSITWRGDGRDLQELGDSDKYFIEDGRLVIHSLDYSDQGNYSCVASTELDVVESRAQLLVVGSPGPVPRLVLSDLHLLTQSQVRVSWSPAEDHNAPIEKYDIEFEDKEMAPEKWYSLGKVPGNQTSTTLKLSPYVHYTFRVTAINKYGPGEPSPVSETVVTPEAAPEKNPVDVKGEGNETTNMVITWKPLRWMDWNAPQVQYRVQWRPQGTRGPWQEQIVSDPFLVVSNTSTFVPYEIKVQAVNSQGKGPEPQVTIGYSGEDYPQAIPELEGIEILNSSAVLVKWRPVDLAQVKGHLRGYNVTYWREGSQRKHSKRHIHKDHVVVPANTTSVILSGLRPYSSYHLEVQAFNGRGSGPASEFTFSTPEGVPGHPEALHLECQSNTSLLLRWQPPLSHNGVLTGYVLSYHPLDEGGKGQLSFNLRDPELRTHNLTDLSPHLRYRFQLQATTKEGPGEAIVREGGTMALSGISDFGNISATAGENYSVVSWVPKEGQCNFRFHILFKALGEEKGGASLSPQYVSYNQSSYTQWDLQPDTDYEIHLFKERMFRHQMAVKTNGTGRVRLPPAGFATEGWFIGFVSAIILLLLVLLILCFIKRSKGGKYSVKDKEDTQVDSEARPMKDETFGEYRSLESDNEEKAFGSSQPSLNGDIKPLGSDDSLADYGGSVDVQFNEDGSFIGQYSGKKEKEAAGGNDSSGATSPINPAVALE

Row | Binder | % inhibition of N-cadherin dependent neurite outgrowth (peptide 250 µg/mL) [1] | % Inhibition of neurite outgrowth, 250 µg/mL (rat neurons) [3] | % Inhibition of N-Cadherin Response (peptide 125 µg/ml) [5] | % Inhibition of L1 Response (peptide 125 µg/ml) [6] | EC50, decrease of electrical resistance across MDCK cell monolayer [7] | % inhibition of neurite outgrowth (peptide 125 µg/mL) [9] | EC50 for inhibition of neurite outgrowth [9] | further results
1 | H-CAHAVDIC-NH2 (disulfide 1-8 (inferred)) [H-CAHAVDIC-NH2] | -3.7% | 0% |  |  |  |  |  | Percent Inhibition of N-cadherin dependent neurite outgrowth (peptide 250 µg/ml) [2]: -3.7%
2 | Ac-CHAVC-NH2 (disulfide 1-5 (inferred)) [N-Ac-CHAVC-NH2] | 68.2% | 65% | 33.2% | 41.6% | 270 µM |  |  | EC50 for inhibition of the N-cadherin response (neurite outgrowth) [4]: 220 µM; Percent Inhibition of N-cadherin dependent neurite outgrowth (peptide 250 µg/ml) [2]: 68.2%
3 | Ac-CSHAVC-NH2 (disulfide 1-6 (inferred)) [N-Ac-CSHAVC-NH2] | 11% | 0% |  |  | 20 µM |  |  | 
4 | Ac-CFSHAVC-NH2 (disulfide 1-7 (inferred)) [N-Ac-CFSHAVC-NH2] |  |  |  |  | 22 µM |  |  | 
5 | Ac-CHAVCY-NH2 (disulfide 1-5 (inferred)) [N-Ac-CHAVC-Y-NH2] |  |  |  |  |  |  |  | EC50 for inhibition of neurite outgrowth [4]: 120 µM; EC50, decrease of electrical resistance across MDCK cell monolayer [8]: 210 µM
6 | Ac-CHAVDC-NH2 (disulfide 1-6 (inferred)) [N-Ac-CHAVDC-NH2] | 88.4% | 88% | 77.1% | 9.6% |  | 77.1% | 93 µM | 
7 | Ac-CHAVDIC-NH2 (disulfide 1-7 (inferred)) [N-Ac-CHAVDIC-NH2] |  |  | 88.3% | 6% |  | 88.3% | 60 µM | 
8 | Ac-CHAVDINC-NH2 (disulfide 1-8 (inferred)) [N-Ac-CHAVDINC-NH2] |  |  | 62% | 1.7% |  | 62% | 70 µM | 
9 | Ac-CHAVYC-NH2 (disulfide 1-6 (inferred)) [N-Ac-CHAVYC-NH2] |  |  |  |  |  | 64.9% | 128 µM | EC50 for inhibition of neurite outgrowth [4]: 80 µM

From patent US20040106545A1 (MCGILL UNIVERSITY, published 2004)
